B1: Mothers against decapentaplegic homolog 3 (Homo sapiens), P84022 (parent)
chain: MSSILPFTPPIVKRLLGWKKGEQNGQEEKWCEKAVKSLVKKLKKTGQLDELEKAITTQNVNTKCITIPRSLDGRLQVSHRKGLPHVIYCRLWRWPDLHSHHELRAMELCEFAFNMKKDEVCVNPYHYQRVETPVLPPVLVPRHTEIPAEFPPLDDYSHSIPENTNFPAGIEPQSNIPETPPPGYLSEDGETSDHQMNHSMDAGSPNLSPNPMSPAHNNLDLQPVTYCEPAFWCSISYYELNQRVGETFHASQPSMTVDGFTDPSNSERFCLGLLSNVNRNAAVELTRRHIGRGVRLYYIGGEVFAECLSDSAIFVQSPNCNQRYGWHPATVCKIPPGCNLKIFNNQEFAALLAQSVNQGFEAVYQLTRMCTIRMSFVKGWGAEYRRQTVTSTPCWIELHLNGPLQWLDKVLTQMGSPSIRCSSVS

Variants of: B1
Settings: with smad4_human SMAD4, Q13485
With K333R;K378R;K409R the “effect of a mutation on the interaction” value was “decreasing interaction”.
In the case of K333R;K341R;K378R;K409R, the “effect of a mutation on the interaction” value is reported as “decreasing interaction”.

Variants of: B1
Settings: with smuf2_human SMURF2, Q9HAU4
With T179V;S204A;S208A;S213A the “effect of a mutation on the interaction” value was “disrupting interaction”.
For T179V, the “effect of a mutation on the interaction” value was “disrupting interaction”.

Variants of: B1
Settings: with ubc_human UBC
In the case of K409R, the “effect of a mutation on the interaction” value is reported as “decreasing interaction”.
K333R was tested, and the “effect of a mutation on the interaction” value was “decreasing interaction”.
In the case of K378R, the “effect of a mutation on the interaction” value is reported as “decreasing interaction”.
In the case of K341R, the “effect of a mutation on the interaction” value is reported as “decreasing interaction”.
